In patent US20080292639A1 (Amgen, published 2008):

B1: 2.1 N (antibody, human IgG1, kappa, V domains shown)
VH: QVTLKESGPALVKPTQTLTLTCTFSGFSLRTSGMGVGWIRQPPGKGLEWLAHIWWDDDKSYNPSLKSQLTISKDTSKNQVVLTMTNMDPVDTATYYCARRNYYYDDYFAYWGQGTTLTVSS
VL: DVVMTQSPLSLPVTLGQPASISCRSSQSIVHSNGNTYLEWFQQRPGQSPRRLIYKVSNRFSGVPDRFSGSGSGTDFTLKISRVEAEDVGVYYCFQGSHVPLTFGQGTKLEIKR
notes: Humanized IgG
B2: murine monoclonal anti-amyloid antibody 2.1 (antibody, mouse IgG1, kappa, V domains shown)
VH: QVTLKESGPGILKPSQTLSLTCSFSGFSLRTSGMGVGWIRQPSGKGLEWLAHIWWDDDKSYNPSLKSQLTISKDTSRNQVFLKITSVDTADTATYYCARRNYYYDDYFAYWGQGTTLTVSS
VL: DVLMTQTPLSLPVSLGDQASISCRSSQSIVHSNGNTYLEWYLQKPGQSPKLLIYKVSNRFSGVPDRFSGSGSGTDFTLKISRVEAEDLGVYYCFQGSHVPLTFGAGTKLELKR
notes: also called mAb 2.1; 2.1 murine

Experiments:
[1] = target: T1, native amyloid plaques in unfixed brain sections of Tg2576 APP transgenic mice (human, UniProt P05067 672-713, limits assumed); assay: immunohistochemistry on unfixed Tg2576 mouse brain sections
T1 construct: Tissue deposits of Aβ in situ; also called amyloid plaques (Tg2576 mouse brain); amyloid deposits

[2] = target: T1, native amyloid plaques in unfixed brain …; assay: cell-based or functional assay
human Aβ40 fibrils = target: T2, human Aβ40 fibrils (human, UniProt P05067 672-711); assay: BIAcore, antibody injected over immobilized Aβ aggregates
T2 construct: domain: Aβ40; Aggregated (fibrillar) form; also called Fibrillar Aβ40; Aβ40 aggregate
Procedure: (§1) Preparation of BIacore Chip Surfaces: Immobilization of Proteins to a Biacore sensor chip (CM5) was performed according to manufacturer's instructions. Briefly, carboxyl groups on the sensor chip surfaces were activated by injecting 60 μL of a mixture containing 0.2 M N-ethyl-N′-(dimethylaminopropyl)carbodiimide (EDC) and 0.05 M N-hydroxysuccinimide (NHS). Specific surfaces were obtained by injecting rProtein G (Pierce), goat anti-mouse Fc (Jackson Immuno Research Lab) or Aβ aggregates diluted in 10 mM acetate, pH 4.0 at concentrations between 5 and 20 μg/mL. Excess reactive groups on the surfaces were deactivated by injecting 60 μL of 1 M ethanolamine. Final immobilized levels were about 10000 resonance units (RU) for the Protein G and anti-mouse Fc surfaces, and 400 RU for the Aβ aggregates surfaces. A blank, mock-coupled reference surface was also prepared on the sensor chips for background subtraction.
(§2) Kinetic analysis of antibodies binding to immobilized Aβ aggregates: Antibodies were diluted in PBS+0.005% P-20+0.1 mg/mL BSA from 100 nM to 0.2 nM. The samples at each concentration were injected over the immobilized Aβ aggregate surfaces, as well as over a blank surface for background subtraction. After a 15-minute dissociation, the surface was regenerated by injecting 8 mM glycine, pH 3.0, and 1 M NaCl for 30 seconds.

human Aβ42 fibrils = target: T3, human Aβ42 fibrils (human, UniProt P05067 672-713); assay: as above
T3 construct: domain: Aβ42; Aggregated (fibrillar) form; also called Fibrillar Aβ42; Aβ42 aggregate
Procedure: as §1, §2

human Aβ40 monomer = target: T4, human Aβ40 monomer (human, UniProt P05067 672-711); assay: BIAcore, antibody captured on protein G or anti-mouse Fc, Aβ monomer injected
T4 construct: domain: Aβ40; Monomeric form
Procedure: as §1
(§3) Kinetic analysis of Aβ monomers binding to protein G captured antibodies: The kinetic analysis of the interaction between Aβ monomers and antibodies was performed as follows: 2.1A and mAb 2.1 were diluted in PBS+0.005% P-20+0.1 mg/mL BSA and injected over the immobilized protein G or anti-mouse Fc surfaces. Aβ monomers were diluted in PBS+0.005% P-20+0.1 mg/mL BSA from 1000 nM to 2 nM, and each concentration was injected over the captured antibody surfaces. After 3 minutes dissociation, each surface was regenerated by injection of 10 mM glycine, pH 1.5.

human Aβ42 monomer = target: T5, human Aβ42 monomer (human, UniProt P05067 672-713); assay: as above
T5 construct: domain: Aβ42; Monomeric form
Procedure: as §1, §3

T4 sequence (P05067 672-711 limits assumed): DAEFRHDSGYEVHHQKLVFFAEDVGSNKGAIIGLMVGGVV
T5 sequence (P05067 672-713 limits assumed): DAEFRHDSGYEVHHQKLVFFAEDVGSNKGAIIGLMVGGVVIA
T1 sequence (P05067 672-713 limits assumed): as above
T2 sequence (P05067 672-711 limits assumed): as the sequence (P05067 672-711 limits assumed) above
T3 sequence (P05067 672-713 limits assumed): as the sequence (P05067 672-713 limits assumed) above

Binder | binding result [1] | EC50 of antibody induced phagocytosis of amyloid [2] [µg/mL] | koff (human Aβ40 fibrils) [s⁻¹] | koff (human Aβ42 fibrils) [s⁻¹] | Kd (human Aβ40 monomer) [nM] | koff (human Aβ40 monomer) [s⁻¹] | kon (human Aβ40 monomer) [M⁻¹ s⁻¹] | Kd (human Aβ42 monomer) [nM] | koff (human Aβ42 monomer) [s⁻¹] | kon (human Aβ42 monomer) [M⁻¹ s⁻¹]
B1 | no binding (tested: 1 µg/ml) | – | – | – | – | – | – | – | – | –
B2 | – | 0.4 | < 5e-05 | < 5e-05 | 42 | 0.0041 | 98000 | 17 | 0.00072 | 42000
